According to PMC11143371 (Nature Communications, 2024):

Biological target: T1, RV3 preF OnlyEcto (Human respirovirus 3 (HPIV3), strain …, stabilised)
T1 construct: also called RV3 preF lead candidate; source: Expi293F, transfected, purified (Capto Q Impress, SEC)
Experiment: BLI; kinetic Octet; […] (0-900 s), […] (900-1800 s)
Details: both partners purified

B1: single-domain antibody (sdAb) 4C06 (VHH)
VHH: EVQLVESGGGLVQPGGSLRLSCSASGSLSTIKALGWYRRAPGRERELVASITSAGETNYADSAKGRFTVSTDNAKNTVDLRMNSLKPEDTAVYYCYAESFVLNIYWGQGTQVTVSS
notes: also called VHH 4C06
B1: binds.
